Assay results: the RNAGym collection of RNA variant scans (doi:10.7554/elife.80360)

B1: CPEB3 Ribozyme (parent)
chain: GGGGGCCACAGCAGAAGCGUUCACGUCGCGGCCCCUGUCAGAUUCUGGUGAAUCUGCGAAUUCUGCUGU

Variants of: B1
Test: self-cleavage, relative activity (ratio to wild type); higher = more cleavage; co-transcriptional
G30A A59C gave a self-cleavage of 0.275. Variant G30A A59G has a self-cleavage of 0.708. With C27U G28A the self-cleavage was 0.126. C27U U43C showed a self-cleavage of 0.285. With G28U G56U the self-cleavage was 0.137. G28U G56A gave a self-cleavage of 0.14. G28U G56C gave a self-cleavage of 0.163. G30A A42C gave a self-cleavage of 0.623. G30A A42U gave a self-cleavage of 0.677. C29U C63A gave a self-cleavage of 0.176. Variant C29U C63G has a self-cleavage of 0.198. With G28C C45A the self-cleavage was 0.135. Work on G28C C45U yielded a self-cleavage of 0.194. Variant G28A G48A has a self-cleavage of 0.19. Work on G28A G48C yielded a self-cleavage of 0.213. Variant G28A G48U has a self-cleavage of 0.19. Work on C29U G47U yielded a self-cleavage of 0.631. Work on C27U G56U yielded a self-cleavage of 0.197. G28A A51G showed a self-cleavage of 0.229. With C29A C54U the self-cleavage was 0.682. For C29A C54G, the self-cleavage was 0.299. G28U C39U gave a self-cleavage of 0.171. In the case of G28A U64G, the self-cleavage is reported as 0.205. G28A U64C showed a self-cleavage of 0.151. G28C U38A gave a self-cleavage of 0.222. In the case of G28C U38G, the self-cleavage is reported as 0.133. In the case of G28A C63U, the self-cleavage is reported as 0.195. For G28C C34A, the self-cleavage was 0.127. Variant C29G A59G has a self-cleavage of 0.675. Work on C27U C45A yielded a self-cleavage of 0.216. C27U C45U showed a self-cleavage of 0.35. Variant G30A G41U has a self-cleavage of 0.341. Variant C29G A42C has a self-cleavage of 0.347. Work on G28C C63A yielded a self-cleavage of 0.186. For G28C C63G, the self-cleavage was 0.198. With G28C G58U the self-cleavage was 0.187. For G28C G58A, the self-cleavage was 0.156. G30A U36C showed a self-cleavage of 0.449. Work on G30A U36G yielded a self-cleavage of 0.166. For G28A G50C, the self-cleavage was 0.226. G30A G50U showed a self-cleavage of 0.856. In the case of G28A, the self-cleavage is reported as 0.213. In the case of G28U, the self-cleavage is reported as 0.178. G28C showed a self-cleavage of 0.173. With G28U C32G the self-cleavage was 0.217. With G28U C32U the self-cleavage was 0.226. C27U G50C gave a self-cleavage of 0.272. In the case of G28C A52C, the self-cleavage is reported as 0.198. With G28C A52G the self-cleavage was 0.174. For C29U U61C, the self-cleavage was 0.183. C29A U49A showed a self-cleavage of 0.805. Variant G30A C66A has a self-cleavage of 0.559. With G28A U38A the self-cleavage was 0.176. C29G U69G gave a self-cleavage of 0.703. G28U G68U showed a self-cleavage of 0.208. G28U G68A showed a self-cleavage of 0.195. G28U U55G showed a self-cleavage of 0.168. Work on C29G C45U yielded a self-cleavage of 0.601. With C29G C33U the self-cleavage was 0.558. Work on G28C U49G yielded a self-cleavage of 0.182. G28C U49A gave a self-cleavage of 0.126. C29G A51U gave a self-cleavage of 0.439. In the case of C29G A51C, the self-cleavage is reported as 0.484. Work on C29G A51G yielded a self-cleavage of 0.541. C29G G31C gave a self-cleavage of 0.13. With C27U C57U the self-cleavage was 0.204. For C27U C63A, the self-cleavage was 0.165. Work on C27U C63G yielded a self-cleavage of 0.263. C29A U55G gave a self-cleavage of 0.323. In the case of C29U G31C, the self-cleavage is reported as 0.158. Variant G28A G65A has a self-cleavage of 0.152. G28A G65U gave a self-cleavage of 0.172. With G28U U64C the self-cleavage was 0.219. Work on G30A G68U yielded a self-cleavage of 1. G30A G68C showed a self-cleavage of 1.01. G28A C39G gave a self-cleavage of 0.157. With C27U G48A the self-cleavage was 0.431. For C27U G48U, the self-cleavage was 0.504. In the case of G28A C35G, the self-cleavage is reported as 0.188. C29A U62G showed a self-cleavage of 0.269. Work on C29U A42G yielded a self-cleavage of 0.246. Work on C29U A42C yielded a self-cleavage of 0.229. For C27U U61A, the self-cleavage was 0.22.
